This assay has as its target recombinant protein phosphatase-1 catalytic subunit alpha (PP1cα) (UniProt P62136 1-330). As to the kind of experiment: ITC.

Where no end group is shown, it is not given here. [ ]: non-standard residue; d: D form. pT = C[C@@H](OP(=O)(O)O)[C@H](N)C(=O)O

Chain of recombinant protein phosphatase-1 catalytic subunit alpha (PP1cα) (P62136 whole entry): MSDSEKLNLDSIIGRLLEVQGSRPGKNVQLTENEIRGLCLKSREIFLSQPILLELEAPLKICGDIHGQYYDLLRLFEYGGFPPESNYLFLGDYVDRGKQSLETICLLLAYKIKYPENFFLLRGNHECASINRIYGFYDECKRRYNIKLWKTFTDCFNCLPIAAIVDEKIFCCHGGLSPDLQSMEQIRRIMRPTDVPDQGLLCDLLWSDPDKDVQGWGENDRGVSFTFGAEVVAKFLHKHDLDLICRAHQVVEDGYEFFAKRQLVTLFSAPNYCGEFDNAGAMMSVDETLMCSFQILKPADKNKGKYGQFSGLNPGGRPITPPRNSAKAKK

B1: P-Thr696-MYPT1^690−701 (phosphorylated peptide of the inhibitory region of myosin phosphatase target subunit-1) (peptide)
peptide: RQSRRS[pT]QGVTL
Turning to B1, the Ka stood at 2.57e+06 M⁻¹.

The values above are taken from publication PMC10003451 (2023).
